Measurements as given in patent US20050153887A1.
Values belong to the molecule of their own block, whether it stands above or below them.

Experiments:
Assay in all cases: cell-based or functional assay
[1] = molecular target: Dishevelled (overexpressed in 293T cells for the reporter assay)
[2] = molecular target: Ryk (DNA construct expressing Ryk, transfected into 293T cells for the reporter assays)
[3] = molecular target: endogenous Ryk of mouse (mouse) (UniProt Q01887)
[4] = molecular target: endogenous Ryk in 293T cells (human) (UniProt P34925)
UniProt P34925, sequence (P34925 other isoform, or with tags, fused parts or gaps limits assumed): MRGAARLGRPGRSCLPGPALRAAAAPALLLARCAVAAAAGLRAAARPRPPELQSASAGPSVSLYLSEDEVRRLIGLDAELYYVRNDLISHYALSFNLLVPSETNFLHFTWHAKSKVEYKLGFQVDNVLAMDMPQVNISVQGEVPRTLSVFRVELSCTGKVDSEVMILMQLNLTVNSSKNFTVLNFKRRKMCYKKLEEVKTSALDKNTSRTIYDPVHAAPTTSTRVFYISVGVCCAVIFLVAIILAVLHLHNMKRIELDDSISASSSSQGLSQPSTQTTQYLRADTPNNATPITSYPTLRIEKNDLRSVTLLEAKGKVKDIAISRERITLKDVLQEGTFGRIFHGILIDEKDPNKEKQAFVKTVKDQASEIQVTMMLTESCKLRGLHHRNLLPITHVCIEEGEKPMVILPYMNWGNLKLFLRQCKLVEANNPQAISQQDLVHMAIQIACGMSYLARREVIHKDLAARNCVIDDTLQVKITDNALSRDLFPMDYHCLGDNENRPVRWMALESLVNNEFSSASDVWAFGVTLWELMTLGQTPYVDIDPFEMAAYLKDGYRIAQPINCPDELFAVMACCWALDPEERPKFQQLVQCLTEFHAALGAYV

UniProt Q01887, sequence (Q01887 35-594 limits assumed): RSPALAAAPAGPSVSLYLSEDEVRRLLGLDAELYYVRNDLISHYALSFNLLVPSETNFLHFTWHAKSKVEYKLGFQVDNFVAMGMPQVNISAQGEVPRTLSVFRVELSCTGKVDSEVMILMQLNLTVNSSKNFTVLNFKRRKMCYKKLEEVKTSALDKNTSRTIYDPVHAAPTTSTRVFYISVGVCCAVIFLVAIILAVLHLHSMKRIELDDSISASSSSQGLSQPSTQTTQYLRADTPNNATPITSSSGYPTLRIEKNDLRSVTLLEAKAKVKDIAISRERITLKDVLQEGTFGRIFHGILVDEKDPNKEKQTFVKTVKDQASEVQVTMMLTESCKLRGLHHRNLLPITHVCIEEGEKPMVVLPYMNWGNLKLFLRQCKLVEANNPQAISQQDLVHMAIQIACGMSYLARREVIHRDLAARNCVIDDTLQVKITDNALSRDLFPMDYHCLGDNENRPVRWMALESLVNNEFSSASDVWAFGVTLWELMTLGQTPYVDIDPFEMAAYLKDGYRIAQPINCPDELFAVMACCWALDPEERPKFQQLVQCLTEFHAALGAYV

activation of the TCF-luciferase reporter on co-expression of Ryk with Dishevelled (Dishevelled alone about 15-fold) [1]: 25 fold
Molecule: Ryk (DNA construct expressing Ryk, transfected into 293T cells for the reporter assays) (receptor)

activation of the TCF-luciferase reporter in 293T cells transfected with Ryk and treated with Wnt3a conditioned medium [2]: 5 fold
average length of neurites of DRG explants in Wnt3a conditioned medium, Ryk siRNA mice against wild type [3]: 2 fold
Molecule: Wnt3a (Wnt3a conditioned medium) (ligand)

activation of the TCF-luciferase reporter in wild type 293T cells after Wnt stimulation [4]: 25 fold
inhibition of TCF-driven transcription induced by Wnt-1 in Ryk siRNA-containing 293T cells [4]: 12 fold
B1: Wnt-1 (cotransfected into 293T cells for the reporter assay) (ligand, UniProt P04628 28-370, looked up, species assumed)
Proto-oncogene Wnt-1: ANSSGRWWGIVNVASSTNLLTDSKSLQLVLEPSLQLLSRKQRRLIRQNPGILHSVSGGLQSAVRECKWQFRNRRWNCPTAPGPHLFGKIVNRGCRETAFIFAITSAGVTHSVARSCSEGSIESCTCDYRRRGPGGPDWHWGGCSDNIDFGRLFGREFVDSGEKGRDLRFLMNLHNNEAGRTTVFSEMRQECKCHGMSGSCTVRTCWMRLPTLRAVGDVLRDRFDGASRVLYGNRGSNRASRAELLRLEPEDPAHKPPSPHDLVYFEKSPNFCTYSGRLGTAGTAGRACNSSSPALDGCELLCCGRGHRTRTQRVTERCNCTFHWCCHVSCRNCTHTRVLHECL
